Source: patent US20060084798, “cDNAs and proteins involved in hypoxia, circadian and orphan signal transduction pathways, and methods of use” (published 2006)
Where two headings read alike, the source gives them in different places.

Key:
MOP1 (HIF1alpha)/AHR = MOP1 (HIF1alpha)/AHR (UniProt Q16665;P35869 Q16665:1-826,P35869:1-848); test: EMSA; no complex with any bHLH-PAS family response element
[1] = target: T1, MOP1 (HIF1alpha)/ARNT heterodimer (Homo sapiens, UniProt Q16665;P27540 Q16665:1-826,P27540:1-789); test: EMSA
T1 sequence (Q16665 whole entry, chain 1 of 2): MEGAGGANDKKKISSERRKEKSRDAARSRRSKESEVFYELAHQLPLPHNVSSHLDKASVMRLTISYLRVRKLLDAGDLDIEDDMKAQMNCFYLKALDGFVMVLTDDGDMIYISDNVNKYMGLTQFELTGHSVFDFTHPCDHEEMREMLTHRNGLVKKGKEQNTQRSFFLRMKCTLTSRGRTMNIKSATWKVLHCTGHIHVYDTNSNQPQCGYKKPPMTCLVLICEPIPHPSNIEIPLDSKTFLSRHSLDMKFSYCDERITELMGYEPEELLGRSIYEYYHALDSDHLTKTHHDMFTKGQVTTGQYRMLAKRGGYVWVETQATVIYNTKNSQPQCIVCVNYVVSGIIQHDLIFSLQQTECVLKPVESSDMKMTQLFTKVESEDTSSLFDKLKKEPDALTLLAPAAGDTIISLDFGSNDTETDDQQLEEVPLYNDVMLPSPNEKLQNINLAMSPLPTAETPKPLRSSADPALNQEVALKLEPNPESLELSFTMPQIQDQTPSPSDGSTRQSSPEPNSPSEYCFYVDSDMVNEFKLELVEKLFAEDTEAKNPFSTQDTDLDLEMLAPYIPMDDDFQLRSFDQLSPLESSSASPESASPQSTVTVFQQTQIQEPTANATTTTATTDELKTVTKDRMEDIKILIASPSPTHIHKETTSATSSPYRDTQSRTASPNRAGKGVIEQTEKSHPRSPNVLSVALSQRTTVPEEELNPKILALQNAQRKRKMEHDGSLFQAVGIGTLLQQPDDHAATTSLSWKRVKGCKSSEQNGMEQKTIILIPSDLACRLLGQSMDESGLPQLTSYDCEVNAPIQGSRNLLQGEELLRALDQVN
T1 sequence (P27540 whole entry, chain 2 of 2): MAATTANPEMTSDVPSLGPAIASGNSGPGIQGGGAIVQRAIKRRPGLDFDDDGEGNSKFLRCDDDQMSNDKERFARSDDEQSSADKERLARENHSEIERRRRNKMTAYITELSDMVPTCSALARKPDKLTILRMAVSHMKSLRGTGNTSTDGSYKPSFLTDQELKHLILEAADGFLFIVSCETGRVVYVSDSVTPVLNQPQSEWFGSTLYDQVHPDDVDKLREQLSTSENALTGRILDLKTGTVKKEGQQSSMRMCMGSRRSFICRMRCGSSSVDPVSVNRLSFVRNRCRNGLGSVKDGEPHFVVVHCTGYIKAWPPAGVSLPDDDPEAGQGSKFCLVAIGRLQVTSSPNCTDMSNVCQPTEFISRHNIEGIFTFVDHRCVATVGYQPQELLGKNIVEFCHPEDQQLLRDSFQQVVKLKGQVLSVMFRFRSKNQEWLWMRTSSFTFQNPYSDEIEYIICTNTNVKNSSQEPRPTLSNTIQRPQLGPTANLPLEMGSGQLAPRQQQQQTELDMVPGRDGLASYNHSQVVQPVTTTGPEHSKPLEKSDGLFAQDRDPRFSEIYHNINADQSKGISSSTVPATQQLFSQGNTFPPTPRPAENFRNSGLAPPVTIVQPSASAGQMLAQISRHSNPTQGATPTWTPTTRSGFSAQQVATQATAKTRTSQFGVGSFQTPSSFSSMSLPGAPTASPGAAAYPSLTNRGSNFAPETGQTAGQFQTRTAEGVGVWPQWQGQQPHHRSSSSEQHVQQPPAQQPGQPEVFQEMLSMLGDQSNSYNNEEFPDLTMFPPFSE

[2] = target: ARNT/HIF2alpha (transfected) (Homo sapiens, UniProt P27540;Q99814 P27540:1-789,Q99814:1-870); test: cell_activity; COS-1 luciferase
Procedure: (§1) Cell Culture and Transient Transfection. Transient transfections of COS-1 cells were performed by the Lipofectamine protocol (GIBCO) as described in Example 1. To mimic hypoxia, 100 μM of cobalt chloride was included in the cell growth media and incubated at 37° C. until harvest. To monitor the transcriptional activity of the MOP3-MOP4 or MOP3-CLOCK heterodimers, a synthetic reporter was constructed by annealing phosphorylated oligonucleotides OL1116 and OL1117 and cloning them into the BglII site in the reporter plasmid pGL3p (Promega). To measure the transcriptional activity of the MOP3-HIF1α or MOP3-HIF2α heterodimers, a synthetic reporter was constructed by annealing phosphorylated oligonucleotides OL1155 and OL1156 and then cloning them as above. Luciferase levels were reported in relation to β-galactosidase activity as described in Example 1.
(§2) To determine if MOP3 formed a transcriptionally active complex with either HIF1α or HIF2α in vivo, we constructed a synthetic reporter using six copies of the M13 element described above. […] Like ARNT, upon exposure of these transfected cells to cobalt chloride to simulate cellular hypoxia, MOP3 interacted and drove transcription in complexes with both HIF1α and with HIF2α.

[3] = target: ARNT/HIF1alpha (transfected) (Homo sapiens, UniProt P27540;Q16665 P27540:1-789,Q16665:1-826); test: cell_activity; COS-1 luciferase
Procedure: as §1, §2

[4] = target: T1, MOP1 (HIF1alpha)/ARNT heterodimer; test: EMSA; higher affinity than MOP1 or ARNT alone
MOP1 (HIF1alpha) [5] = target: T2, MOP1 (HIF1alpha) (Homo sapiens, UniProt Q16665 SEQ:1-826); test: EMSA; HIF1alpha alone
T2 sequence (Q16665 whole entry): as the sequence (Q16665 whole entry, chain 1 of 2) above

MOP1 (HIF1alpha) [6] = target: T2, MOP1 (HIF1alpha); test: EMSA; MOP1 alone; details: label: 32P
ARNT = ARNT (Homo sapiens, UniProt P27540 P27540:1-789); test: EMSA; ARNT alone; details: label: 32P
ARNT, sequence (P27540 whole entry, one chain of several): as the sequence (P27540 whole entry, chain 2 of 2) above

[7] = target: MOP2 (HIF2alpha)/ARNT heterodimer (Homo sapiens, UniProt Q99814;P27540 Q99814:1-870,P27540:1-789); test: EMSA; approximately equal to MOP1-ARNT; supershifted by antisera; details: label: 32P
[8] = target: T1, MOP1 (HIF1alpha)/ARNT heterodimer; test: EMSA; oligo assignment by core; supershifted by antisera; details: label: 32P
[9] = target: MOP7 (HIF3alpha)/human ARNT heterodimer (Mus musculus, UniProt Q0VBL6;P27540 Q0VBL6:1-662,P27540:1-789); test: EMSA; abolished by anti-ARNT; details: label: 32P
Procedure: Gel-shift assay. To generate a double strand oligonucleotide probe containing the core HRE element, 50 ng of oligonucleotide OL414 was end-labeled with [γ-³²P]ATP and was annealed with 10 fold excess of cold complementary oligonucleotide OL415. […] For expression of the bHLH-PAS proteins, mMOP7 (PL1025) and hARNT (PL87) were synthesized in a reticulocyte lysate in the presence of [³⁵S]methionine. The amount of each protein synthesized was calculated by measuring radioactivity and estimated to be approximately 1 fmol in each 10 μl gel-shift reaction. Each gel-shift assay was performed with 100,000 cpm of oligonucleotide probe per 10 μl reaction. To confirm complex identity, 1 μl of anti-ARNT sera was used to supershift the DNA bound protein complex.
As a biochemical proof that MOP7 was a bona fide α-class HIF, we performed gel-shift and transient transfection analyses. Because HIF1α and HIF2α are known to pair with the β-class HIF subunit ARNT, we predicted that MOP7 would also pair with ARNT. Based upon sequence identity in their basic regions, we also predicted that a MOP7-ARNT would bind the HRE core sequence, TACGTG. […] First, the MOP7-ARNT-HRE complex was abolished by anti-ARNT IgGs but not by preimmune antibodies. Second, the complex was blocked by an excess of HRE containing oligonucleotide but not by oligonucleotides with a single mutation within the core HRE sequence. […]

MOP1 (HIF1alpha)/AHR, sequence (Q16665 whole entry, chain 1 of 2): as the sequence (Q16665 whole entry, chain 1 of 2) above
MOP1 (HIF1alpha)/AHR, sequence (P35869 whole entry, chain 2 of 2): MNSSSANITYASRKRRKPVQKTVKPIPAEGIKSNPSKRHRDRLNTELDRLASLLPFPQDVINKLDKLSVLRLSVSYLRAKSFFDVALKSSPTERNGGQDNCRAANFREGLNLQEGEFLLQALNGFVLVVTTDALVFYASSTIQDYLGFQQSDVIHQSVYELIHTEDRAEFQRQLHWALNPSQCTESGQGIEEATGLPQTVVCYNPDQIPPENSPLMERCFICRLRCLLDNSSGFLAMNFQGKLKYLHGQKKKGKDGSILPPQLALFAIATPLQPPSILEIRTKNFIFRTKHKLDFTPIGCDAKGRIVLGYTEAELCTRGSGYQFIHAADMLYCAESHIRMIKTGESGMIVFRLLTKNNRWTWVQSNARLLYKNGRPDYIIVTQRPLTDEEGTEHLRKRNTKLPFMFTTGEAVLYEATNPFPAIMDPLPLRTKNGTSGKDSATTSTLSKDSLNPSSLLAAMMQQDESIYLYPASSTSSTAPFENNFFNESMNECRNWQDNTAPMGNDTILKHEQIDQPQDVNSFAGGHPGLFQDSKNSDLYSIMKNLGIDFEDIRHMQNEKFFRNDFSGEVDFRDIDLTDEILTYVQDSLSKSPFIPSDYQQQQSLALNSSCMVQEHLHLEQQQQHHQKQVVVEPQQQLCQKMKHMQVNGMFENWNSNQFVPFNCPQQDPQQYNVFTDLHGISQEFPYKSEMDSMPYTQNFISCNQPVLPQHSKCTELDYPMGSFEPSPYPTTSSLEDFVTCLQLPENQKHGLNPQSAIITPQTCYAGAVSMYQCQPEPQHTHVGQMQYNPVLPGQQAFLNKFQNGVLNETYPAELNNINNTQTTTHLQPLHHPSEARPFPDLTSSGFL

B1: OL447/OL448 TTGCGTG (DRE) (dsDNA)
DNA 1: TCGAGCTGGGCAGGTTGCGTGGCAAGGC
DNA 2: TCGAGCCTTGCCACGCAACCTGCCCAGC
MOP1 (HIF1alpha)/AHR
  binding result: no binding
[1]
  binding result: no binding

B2: M13 reporter insert OL1155 (reporter carries six M13 copies) (dsDNA)
DNA 1: GATCGGATACGTGACCATTGGTTACGTGTCCATTGGATACGTGACC
DNA 2: GGTCACGTATCCAATGGACACGTAACCAATGGTCACGTATCCGATC
[2]
  activity: 8.1 fold
[3]
  activity: 14.1 fold

B3: OL445/OL446 CACGTG E-box (dsDNA)
DNA 1: TCGAGCTGGGCAGGTCACGTGGCAAGGC
DNA 2: TCGAGCCTTGCCACGTGACCTGCCCAGC
MOP1 (HIF1alpha)/AHR
  binding result: no binding
[4]
  binding result: binds

B4: OL443/OL444 GTGCGTG (SAE) (dsDNA)
DNA 1: TCGAGCTGGGCAGGGTGCGTGGCAAGGC
DNA 2: TCGAGCCTTGCCACGCACCCTGCCCAGC
MOP1 (HIF1alpha)/AHR
  binding result: no binding
[1]
  binding result: no binding

B5: M13 element (dsDNA)
DNA 1: GCCCTACGTGACCC
DNA 2: GGGTCACGTAGGGC
MOP1 (HIF1alpha) [5]
  binding result: no binding

B6: OL414/OL415 TACGTG (HRE) (dsDNA)
DNA 1: TCGAGCTGGGCAGGGTACGTGGCAAGGC
DNA 2: TCGAGCCTTGCCACGTACCCTGCCCAGC
MOP1 (HIF1alpha)/AHR; label: 32P
  binding result: no binding
MOP1 (HIF1alpha) [6]
  binding result: no binding
ARNT
  binding result: no binding
[7]
  binding result: binds
[8]
  binding result: binds
[9]
  binding result: binds
